Target: human melanocortin 4 receptor (MC4R) (human) (UniProt P32245)
Assay: radioligand binding

Sequence of UniProt P32245 (P32245 whole entry): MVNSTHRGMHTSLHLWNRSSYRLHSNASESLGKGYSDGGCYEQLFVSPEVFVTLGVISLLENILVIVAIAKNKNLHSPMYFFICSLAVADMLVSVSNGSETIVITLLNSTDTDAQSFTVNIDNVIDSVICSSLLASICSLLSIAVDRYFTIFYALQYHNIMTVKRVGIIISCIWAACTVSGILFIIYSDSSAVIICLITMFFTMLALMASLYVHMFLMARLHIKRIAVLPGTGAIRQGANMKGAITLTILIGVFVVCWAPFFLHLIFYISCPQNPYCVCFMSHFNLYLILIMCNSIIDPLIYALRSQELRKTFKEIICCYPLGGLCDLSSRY

[^125I]-[Nle^4, DPhe^7]-α-MSH (peptide)
Kd: 0.1 nM

Source: publication doi:10.1101/2024.06.07.597973
